This is an account of results in patent US7141656.

For experiment [1], the target named is membrane-bound single-chain I-A^d-OVA (SCT1 gene, with the alpha chain transmembrane domain) on transfected NS-0 cells (mouse (I-A^d); chicken (OVA peptide)). Briefly: flow cytometry, FITC-conjugated 10-3.6 1:100 (negative control), T6 (SCT1-transfectant) cells. (Flow cytometry measures light scatter and fluorescence of single cells or particles in a stream.)

Experiment [2] shares this target. Nature of the experiment: flow cytometry, FITC-conjugated 10-3.6 1:100 (negative control), T12 (SCT1-transfectant) cells.
For experiment [3] the target is unchanged. Briefly: flow cytometry, FITC-conjugated 10-3.6 1:100 (negative control), T2 (SCT1-transfectant) cells.
Experiment [4] has as its target soluble single-chain I-A^d-OVA (SSC1 gene; 6xHis tag), produced in SF9 insect cells (mouse (I-A^d); chicken (OVA peptide)). Briefly: sandwich I-A^d ELISA of Example 18 (M5/114 capture, biotinylated AMS-32.1 probe); sc I-A^d-OVA from insect cell culture (positive control).
Experiment [5] has as its target soluble single-chain I-A^d-OVA with EE antibody tag (SCE1 gene), secreted by transfected NSO cells (mouse (I-A^d); chicken (OVA peptide)). Briefly: sandwich I-A^d ELISA of Example 18 (M5/114 capture, biotinylated AMS-32.1 probe); undiluted supernatant of E10 (SCE1 transfectant). A general note: An ELISA detects its analyte on a solid surface through an enzyme-linked reagent.

Experiment [6] addresses membrane-bound single-chain I-A^d-OVA (SCT1 gene, with the alpha chain transmembrane domain) on transfected NS-0 cells (mouse (I-A^d); chicken (OVA peptide)). Nature of the experiment: flow cytometry, FITC-conjugated AMS 32.1 1:100, T12 (SCT1-transfectant) cells.
In experiment [7] the target is soluble single-chain I-A^d-OVA (SSC1 gene; 6xHis tag), produced in SF9 insect cells (mouse (I-A^d); chicken (OVA peptide)). Briefly: sandwich I-A^d ELISA, M5/114 capture, biotinylated AMS-32.1 probe, 405 nm; cotransfection supernatant undiluted.
In experiment [8] the target is membrane-bound single-chain I-A^d-OVA (SCT1 gene, with the alpha chain transmembrane domain) on transfected NS-0 cells (mouse (I-A^d); chicken (OVA peptide)). Nature of the experiment: flow cytometry, FITC-conjugated AMS 32.1 1:100, T6 (SCT1-transfectant) cells.
The target of experiment [9] is soluble single-chain I-A^d-OVA (SSC1 gene; 6xHis tag), produced in SF9 insect cells (mouse (I-A^d); chicken (OVA peptide)). Briefly: sandwich I-A^d ELISA, M5/114 capture, biotinylated AMS-32.1 probe; supernatant of virus clone F8.
Experiment [10] shares this target. Briefly: sandwich I-A^d ELISA, M5/114 capture, biotinylated AMS-32.1 probe, 405 nm; cotransfection supernatant diluted 1:2.
Experiment [11] has the same target. Nature of the experiment: sandwich I-A^d ELISA, M5/114 capture, biotinylated AMS-32.1 probe, 405 nm; cotransfection supernatant diluted 1:4.
For experiment [12], the target named is soluble single-chain I-A^d-OVA with EE antibody tag (SCE1 gene), secreted by transfected NSO cells (mouse (I-A^d); chicken (OVA peptide)). Nature of the experiment: sandwich I-A^d ELISA of Example 18 (M5/114 capture, biotinylated AMS-32.1 probe); undiluted supernatant of E11 (SCE1 transfectant).
Experiment [13] deals with membrane-bound single-chain I-A^d-OVA (SCT1 gene, with the alpha chain transmembrane domain) on transfected NS-0 cells (mouse (I-A^d); chicken (OVA peptide)). Briefly: flow cytometry, FITC-conjugated AMS 32.1 1:100, T2 (SCT1-transfectant) cells.
Experiment [14] concerns the target soluble single-chain I-A^d-OVA (SSC1 gene; 6xHis tag), produced in SF9 insect cells (mouse (I-A^d); chicken (OVA peptide)). Nature of the experiment: sandwich I-A^d ELISA, M5/114 capture, biotinylated AMS-32.1 probe, 405 nm; cotransfection supernatant diluted 1:8.
Experiment [15] shares this target. Briefly: sandwich I-A^d ELISA, M5/114 capture, biotinylated AMS-32.1 probe; supernatant of virus clone C6.
The target in experiment [16] is Neuron Specific Enolase (NSE), in supernatant of SF9 cells infected with a recombinant Baculovirus. Briefly: sandwich I-A^d ELISA, M5/114 capture, biotinylated AMS-32.1 probe; supernatant of SF9 cells infected with NSE Baculovirus.
Experiment [17] has as its target full-length murine I-A^d/OVA 323-339 MHC class II fusion complex (pJRS165.1) expressed on NSO cells (mouse; chicken) (UniProt P04228). Nature of the experiment: flow cytometry, FITC-conjugated isotype matched irrelevant antibody 1:100, clone NSO/IA^d/OVA.A4.
The target of experiment [18] is murine class II MHC molecule I-A^d on A20.1-11 cells (mouse) (UniProt P04228). Briefly: flow cytometry, FITC-conjugated isotype matched irrelevant antibody 1:100, A20.1 cells (+ control).
The target of experiment [19] is full-length murine I-A^d/OVA 323-339 MHC class II fusion complex (pJRS165.1) expressed on NSO cells (mouse; chicken) (UniProt P04228). Nature of the experiment: flow cytometry, FITC-conjugated isotype matched irrelevant antibody 1:100, clone NSO/IA^d/OVA.B2.
Experiment [20] shares this target. Nature of the experiment: flow cytometry, FITC-conjugated isotype matched irrelevant antibody 1:100, clone NSO/IA^d/OVA.B5.
Experiment [21] has the same target. Briefly: flow cytometry, FITC-conjugated isotype matched irrelevant antibody 1:100, clone NSO/IA^d/OVA.B4.
Experiment [22] has as its target T cell receptor of the murine T cell hybridoma DO11.10 (specific for OVA 323-339 in the context of I-A^d) (mouse). Nature of the experiment: cell-based or functional assay.

In the case of “10-3.6 anti-I-A^k antibody (PharMingen), isotype matched negative control”, the Mean Fluorescence in experiment [1] came out at 45.1; in [2] it was 45.9; in [3] it was 22.

On to “AMS-32.1 anti-IA^d monoclonal antibody (PharMingen)”, for which the Absorbance was 2.44 in [4]; 0.781 in experiment [5]; 0.857 in [7]; 1.45 in [9]; 0.524 in experiment [10]; 0.305 in experiment [11]. The Absorbance in experiment [12] worked out at 0.96; in experiment [14], 0.165; in experiment [15] it was 1.56; in [16], 0.098. The Mean Fluorescence is 911 in experiment [6], 418 in experiment [8] and 613 in experiment [13].

Turning to “FITC-conjugated anti-IA^k antibody (Pharmingen), isotype matched irrelevant antibody, Example 13”, the peak channel fluorescence amounted to 34 in experiment [17]; 5 in experiment [18]; 14 in experiment [19]; 10 in [20]; 11 in [21].

B1: membrane-bound single-chain I-A^d-OVA (SCT1 gene, with the alpha chain transmembrane domain) on transfected NS-0 cells (peptide-MHC)
chain: TMALQIPSLLLSAAVVVLMVLSSPRTLSISQAVHAAHAEINEAGRASGGGGSGGGGNSERHFVVQFKGECYYTNGTQRIRLVTRYIYNREEYVRYDSDVGEYRAVTELGRPDAEYWNSQPEILERTRAEVDTACRHNYEGPETSTSLRRLEQPNVAISLSRTEALNHHNTLVCSVTDFYPAKIKVRWFRNGQEETVGVSSTQLIRNGDWTFQVLVMLEMTPHQGEVYTCHVEHPSLKSPITVEWTSGGGGSGGGGSGGGGSGGGGSSSEDDIEADHVGFYGTTVYQSPGDIGQYTHEFDGDELFYVDLDKKKTVWRLPEFGQLILFEPQGGLQNIAAEKHNLGILTKRSNFTPATNEAPQATVFPKSPVLLGQPNTLICFVDNIFPPVINITWLRNSKSVTDGVYETSFLVNRDHSFHKLSYLTFIPSDDDIYDCKVEHWGLEEPVLKHWEPEIPAPMSELTETVVCALGLSVGLVGIVVGTIFIIQGLRSGGTSRHPGPL
Turning to B1, in experiment [22], the IL-2 ELISA result (Absorbance), DO11.10 with T2 (SCT1 transfectant) cells is 0.758; the IL-2 ELISA result (Absorbance), DO11.10 with T6 (SCT1 transfectant) cells is 0.307; the IL-2 ELISA result (Absorbance), DO11.10 with T12 (SCT1 transfectant) cells turned out to be 1.03.

B2: soluble single-chain I-A^d-OVA (SSC1 gene; 6xHis tag), produced in SF9 insect cells (peptide-MHC)
chain: TMALQIPSLLLSAAVVVLMVLSSPRTLSISQAVHAAHAEINEAGRASGGGGSGGGGNSERHFVVQFKGECYYTNGTQRIRLVTRYIYNREEYVRYDSDVGEYRAVTELGRPDAEYWNSQPEILERTRAEVDTACRHNYEGPETSTSLRRLEQPNVAISLSRTEALNHHNTLVCSVTDFYPAKIKVRWFRNGQEETVGVSSTQLIRNGDWTFQVLVMLEMTPHQGEVYTCHVEHPSLKSPITVEWTSGGGGSGGGGSGGGGSGGGGSSSEDDIEADHVGFYGTTVYQSPGDIGQYTHEFDGDELFYVDLDKKKTVWRLPEFGQLILFEPQGGLQNIAAEKHNLGILTKRSNFTPATNEAPQATVFPKSPVLLGQPNTLICFVDNIFPPVINITWLRNSKSVTDGVYETSFLVNRDHSFHKLSYLTFIPSDDDIYDCKVEHWGLEEPVLKHWSRASHHHHHH
In [22], B2 came in with an IL-2 concentration in DO11 super (U/ml) at 39 ng/well immobilized scIA^d-OVA, extended dilution of 0 U/ml; an IL-2 concentration in DO11 super (U/ml) at 78 ng/well immobilized sc IA^d-OVA of 45 U/ml; an IL-2 concentration in DO11 super (U/ml) at 78 ng/well immobilized scIA^d-OVA, extended dilution of 17 U/ml; an IL-2 concentration in DO11 super (U/ml) at 156 ng/well immobilized sc IA^d-OVA of 100 U/ml. In addition, in [22], the IL-2 concentration in DO11 super (U/ml) at 156 ng/well immobilized scIA^d-OVA, extended dilution amounted to 24 U/ml; the IL-2 concentration in DO11 super (U/ml) at 312 ng/well immobilized sc IA^d-OVA was determined as 109 U/ml; the IL-2 concentration in DO11 super (U/ml) at 312 ng/well immobilized scIA^d-OVA, extended dilution worked out at 35 U/ml; the IL-2 concentration in DO11 super (U/ml) at 625 ng/well immobilized sc IA^d-OVA was found to be 116 U/ml. In [22], this molecule yielded an IL-2 concentration in DO11 super (U/ml) at 625 ng/well immobilized scIA^d-OVA, extended dilution of 38 U/ml; an IL-2 concentration in DO11 super (U/ml) at 1250 ng/well immobilized sc IA^d-OVA of 126 U/ml; an IL-2 concentration in DO11 super (U/ml) at 2500 ng/well immobilized sc IA^d-OVA of 143 U/ml; an IL-4 concentration in DO11 super (U/ml) at 78 ng/well immobilized sc IA^d-OVA of 7 U/ml. In experiment [22], this molecule registered an IL-4 concentration in DO11 super (U/ml) at 156 ng/well immobilized sc IA^d-OVA of 10 U/ml, an IL-4 concentration in DO11 super (U/ml) at 312 ng/well immobilized sc IA^d-OVA of 16 U/ml, an IL-4 concentration in DO11 super (U/ml) at 625 ng/well immobilized sc IA^d-OVA of 15 U/ml and an IL-4 concentration in DO11 super (U/ml) at 1250 ng/well immobilized sc IA^d-OVA of 20 U/ml. Besides, in experiment [22], the IL-4 concentration in DO11 super (U/ml) at 2500 ng/well immobilized sc IA^d-OVA worked out at 23 U/ml; the IL-r [IL-4] concentration in DO11 super (U/ml) at 39 ng/well immobilized scIA^d-OVA, extended dilution amounted to 0 U/ml; the IL-r [IL-4] concentration in DO11 super (U/ml) at 78 ng/well immobilized scIA^d-OVA, extended dilution was 0.8 U/ml; the IL-r [IL-4] concentration in DO11 super (U/ml) at 156 ng/well immobilized scIA^d-OVA, extended dilution amounted to 0.9 U/ml. In experiment [22], the IL-r [IL-4] concentration in DO11 super (U/ml) at 312 ng/well immobilized scIA^d-OVA, extended dilution is 1.5 U/ml and the IL-r [IL-4] concentration in DO11 super (U/ml) at 625 ng/well immobilized scIA^d-OVA, extended dilution stood at 2 U/ml.
